{"source": "the DeepSol protein solubility set", "data": [{"test": "soluble on expression in E. coli; label from the status in PepcDB or PDB records", "values": [{"sequence": "MSLTPRFIDLHTHTTASDGSDSPADLVRKATEAGLAAVAVTDHDTVAGLDEAVAMGHETGIEVVRGCELGVRSEYGEIHILGLWLPEKPETLLDAMKELRRHRNERNERIVDNLRTLGMDITYEEVRALSGGVSVGRPHIALALLRHGYIRTPQEAFDRFIGPGAPAYAPKKVFSPAEGVRLLASCGATVAIAHPMLLRCPEEWLDDTVADLKVAGLDAIEAYHSEHSHKDERRCVDIADRHGLVLTGGSDYHGKAKPAISLGRGREGHHHHHH", "soluble on expression in E. coli": "not soluble"}, {"sequence": "MTSITVQLRSGLDGVYFALKQMSGLRAKLLLVGNENPVPTVLPASQRGTPFPGGNTMTQASLIRLSELNNDAQYNLNDTSMYNPVGAAAYGVNGDKIGTVRDALVEPETGRIRYFLVDVGGWFSSKEVLVPVGYGRVDDSGVYFDSLTKDQVKDMSEYRADQAYSSEMMDTDERVLRGNQSQEEYHQRAYQTPDRLQLLEERLVVNKDRFKAGSVQIGKRIETRQETVSVPLQREEVVIERHAVTDGRAVEGAVLGEGHQTMSVDLEAERANISKQAYVTEEVSVGKRAVTETQQVTETVGREVLDVNQTGDVRTTEGTALTDDTTKRNILEHHHHHH", "soluble on expression in E. coli": "soluble"}, {"sequence": "MGSDKIHHHHHHMNTDDILFSYGEEDIPLKALSFPIFETTNFYFDSFDEMSKALRNGDYEFVYKRGSNPTTRLVEKKLAALEECEDARLVASGMSAISLSILHFLSSGDHVVCVDEAYSWAKKFFNYLSKKFDIEVSYVPPDAERIVEAITKKTKLIYLESPTSMRMKVIDIRKVTEAAGELKIKTVIDNTWASPIFQKPKLLGVDVVVHSATKYISGHGDVMAGVIAGDVEDMKNIFVDEYKNIGPVLSPIEAWLILRGLRTLELRMKKHYENALVVSDFLMDHPKVLEVNYPMNPRSPQYELASSQMSGGSGLMSFRLKTDSAEKVKEFVESLRVFRMAVSWGSHENLVVPRVAYGDCPKKDVNLIRIHVGLGDPEKLVEDLDQALKKI", "soluble on expression in E. coli": "not soluble"}, {"sequence": "MKKRILAVAVTSMLLSASVFAQETVVPSRVGDLKFESDFPTQETMKNMLNEMDFQRATQAYLWGIPASSIMEWLNVSRNDFKFEEGQMGFFNTLKQKQGIITANFTTPYVIGTWNLEKTGPLIINLPEAKMAGMMLDVHQRVLSDLSLLGPDKGKGGKYLIVPPGEKYKDLNPKGYYVIRPKTNVVYGGIRILEPDVDRVVKQVVPNITTQPYADGKLGRKIPVAQVPEIDWTHIPKDGLEYWKTIHQIIQENPVEERDRFVMAQLKFLGIEKGKPFNPTEEQKKILLEASKVGRAMAQSNDYTKRFTQPYWKGTNWKDAISVSLDQRSENYDELDERAAWFYEAITVSRGMKSTIPGFGQRYLVTYQDSDGNWLSGEHTYKLHVPANVPASNFWSTTVYDENNRLMIINDAGSPDISSRKNLKVNSDGSIDVYYGPKPVKGYENNWVQTNPGEGWFTYFRFYGPTEKMFDKSWTMGDIELVKLEHHHHHH", "soluble on expression in E. coli": "soluble"}, {"sequence": "SLKIAIVRLSALGDIIQSAVVLQFIKNFKKDIEIHWFVDEKFEGILKNHPLINKLYALPLKDKKILKSLKILLKARKNNYNAVIDLQGLIKSAIVSRILSRNNFGFDKNSLKESFAHNFYNQKLELDYNENVFVRYLSLTSFMLNTDFNVKNLAFKQDIFSVDENLKQLLNNKLKLDKNEKNILIHVGSSVENKIYPKTKLAILCKLLINEFQQTKIWLAWGNVKEYEFAKEVLNLSGIDETHIELAPKFNLEELMAFTKMMNLIIGNDSGPTHLAFALNKASITIFGATPSYRNAFQTHINKIIDAGKKIQNAKHIDKSDFCITRIEEEDIFKLAKGLLN", "soluble on expression in E. coli": "soluble"}, {"sequence": "MLMIKVVCGKKGSGKTRALVDSANSFVSTALGDAVFIDGSSQLMCDLHHKVRFINVSEFPIDISSSCTFLGFLCGIISSNFDVKWVYMDDLIRIVRKPPHEMKELFDGFNELSEKFNVDFYVSIEGDPDSMPDFIKVCY", "soluble on expression in E. coli": "not soluble"}, {"sequence": "MSNTEERCDLSSSRDCPERHEHLLQRVTARAAEIGGGITVSRLMPSRQRRMIGAWCFLDHAGPAEFEPGGGLAVGPHPHIGLQTFTWMIQGEALHRDSLGNVQVIRPGQVNLMTAGHGIAHTEESLPDERHAHAAQLWIALPYEQRDIAPAFDHHPDLPRWQEQGVTFTLLAGALAGRQAPCRLYSPLLGADLACHDASTLQLTLDPHFEYGLLPLEGGLEVGGEHFAVNELAYLGDGRDGLQLQLDPGARVLLLGGAPFGAEIFMWWNFVGHSKGEIARAQKAWEEGDARFGRLDALEGPRLSAPPIPWKIDAE", "soluble on expression in E. coli": "not soluble"}, {"sequence": "MEGEYRLTRSYAVVDITAQVDDSAILEPFACVMARARIGPRTRVGAHSVVGVGVSVGADCCIYHHVTLLNCDIGDRCVIHSGVAIGQDGFGFEVDQQTGKVRKKPQELSVRIGNEVEIGANTCIDRGSWRDTLIEDAVKIDNLVQIGHNVQVGANTFICGQAGVAGSTKIGRYCRFGGRSGAVDHLEIGDHVDVAANSVLTRNAPGHAVYAGFPAMPMREWRHQQVTLRRLSRAGKRQVDVSADDPEFPK", "soluble on expression in E. coli": "not soluble"}, {"sequence": "MILIRLEPGMDLMEEMRAAFSEGVVVTGIGSLHRVRIRTADESELTVEGPLEILSLQGTISPDGVHIHIAVADSEGRVTGGHLRGDSPVRTTAEIAVIPYQGVLRRVMDRRTGYRELLVLE", "soluble on expression in E. coli": "not soluble"}, {"sequence": "MGGIFSKKEKSPKSAPVSDQDNAILALKTQRDKMKQMIKRKENCLEKERQLAKQLIKDGRKDRALLLLKKKRYQEKIIDQTLNHLSKIEQMVNDLEFAEVQQRVTDGLRQGNEALKKMNQLFDIDEIDRIMEETKEAAEYQEEISNMLSGQLSNTDVSDVEKELEDLLAAEWGTVQLPEAPSHELPEAERERQKEKEKPRREKIALEA", "soluble on expression in E. coli": "not soluble"}, {"sequence": "MGSDKIHHHHHHMSPNNFDTDVCIVGGGPTGTLLAVLLGQKGHRVTILEKWPTFYERPRAVTFDHEIARILGYIGIDSENDEAIDYHSDSYDWKNAAGETLLEVDWTSMTDSGWRTRYWFYQPELEKRLRDLALTMDFVDIRCGFTAVGLSQDENSAIIHGIVTDTPENIPADAQREDIRAKYVIGADGANSFVRNSLGLEMNDLGYFFDWLILDLKPTQDIDYGTDHWQLCDPKRPTTIVPGGPGRRRWEFMALPGEDLKELASEESAWNLLEPWDVTPGKAILERSAVYRFQARWAQEWRSGRALIAGDAAHLMPPFAGEGMCAGLRDSLALAWRLDLVLSGKSDDALLDTYGEERREHVHYYIDFSMDLGNVICITDEDEARLRDERMIKELEAQDGVPVNTDVAHLGPGIWDKDSSHGGELAKQGIVEYQGRKARFDDAVGRGWAVLGLNTDPREVLDEDSLVALDAIGAIVESVGDATSAVLDVEGLYTRWLKEAGATFIITRPDFYVYSTAVDAEQLQTQIKQLSDLLHLNSVVGA", "soluble on expression in E. coli": "not soluble"}, {"sequence": "MPSDSTSNIDTTQRQSADLMAEGFGAGVNAPFLVIVDTHEVNADSTALQPLIEAQEPEEGEFDREQAARFATYMYVTQTYNSNIDVKNAQIISVNDDFTAAQILVTPYTGPADKETPELMHVLRAQEAQIEDVTGTELGTTGFTAVQLDITEQLEDAMPVYLEHHHHHH", "soluble on expression in E. coli": "not soluble"}, {"sequence": "MIPLPSGTKIWLVAGITDMRNGFNGLAAKVQTTLKDDPMSGHVFIFRGRNGSQVKLLWSTGDGLCLLTKRLERGRFAWPSARDGKVFLTPAQLAMLLEGIDWRQPKRLLTSLTML", "soluble on expression in E. coli": "not soluble"}, {"sequence": "MSLLYTTPRLNISAFLFMKQQLSFLFLLSGLLAGCSSTPNPNLEQINQFTGGKTIGDATSFYWYTESFQKPSSASDYVTSGDYGSYQTSYRWEEGQVREIRREGEHLDGKKLVPFRVHIRFSKEGEAVYQQYRLGGKVLPMNEEQLAHYVLQAKAVAEATKEQDKQGLELIQGYWNGKTFETCQGVEYQRVEFNQSLPSFVFNRLASIESYVAFLGKIRNGKVHIDELLLLDDAGHDCVKEPELLDEGHHHHHH", "soluble on expression in E. coli": "soluble"}, {"sequence": "MGSDKIHHHHHHMKDEILIRYINKHCTATEEKEILEWLKEKDNRQRLFELEQIWGLKAEMRFSDKGRMDEAYRQLSRQLGLSGQIEKREKPIQRFTVREWWKYAAVLVAVCLFATNLFYITKEEPEAYNTVVVPKGQRVSLLLSDGTTVWLNAESRFSYPAKFSEKYRTVTLEGEGYFEVAHNPKCPFTVKLPMLNIRVLGTKFNAKAYLDEPSWITLKEGSVEVSTLDDRSKERMSPNDQVYYTVSDGLVLIRNSAQANVDSWTTGDLRFDNKTLKEMAKVIERRYDVKIRIMDSSLVEEYFTCHFRKDLTIAQAMELLKETRRVDYRIEKKTVYLYKK", "soluble on expression in E. coli": "not soluble"}, {"sequence": "TLQIQFKKYELPPLPYKIDALEPYISKDIIDVHYNGHHKGYVNGANSLLERLEKVVKGDLQTGQYDIQGIIRGLTFNINGHKLHALYWENMAPSGKGGGKPGGALADLINKQYGSFDRFKQVFTETANSLPGTGWAVLYYDTESGNLQIMTFENHFQNHIAEIPIILILDEFEHAYYLQYKNKRADYVNAWWNVVNWDAAEKKLQKYLTK", "soluble on expression in E. coli": "soluble"}, {"sequence": "MGSDKIHHHHHHMAPNYMTEKWREDEEYLSYVEDLLATEEVQKLAEYTQHMHSTRLEHSISVSYHSYKLAKRWNGNARATARAGLLHDLFYYDWRTTKFDEGSHAYVHPRIAAKNAEKITELSDLERDIIIKHMWGATIAPPKYKESYIVTFVDKYCAVKEAALPMTTAMKTKWRQYFGQQSI", "soluble on expression in E. coli": "not soluble"}, {"sequence": "MAHHHHHHMASFNSLGSGAGDSAEAVTRLQEVLRDICATERRQEKTWLNVQPCVLNAVKLLATTAQVYAERVRQLEDVLQRLQQYTTVLVRDREVKEERYRLDAAAHREEADELWKRLLRLEAQQQEPSLQIDQRASEAFKASCKVAVEARVAPLQQELQGLRHRLKALTLSRPYSSHYNRHVRSSSVASNSSALTMRDHYYAGSDGVAASQHHHHSAASSSSTSSLLSLASSTASSLDRHEQYPRRGRIETTSAPAFTPRALASATAAASPSTQRMMREVQRLRRQWQHFLQSVPAALAQGKGSCRAGLRRRDISGSPSRRLSRLTSKGGRRDLTGGLSDVTRANGEGMESIRGSSPQPFYVPAHHPPSSSPTDAVLPKYSSGPTRARSGARATESSTALPASGRRVRWYWLGDAHSHFSTAVRRAENDFAAAKPLSERPQPALSGVSPALPWTECHAFDGRTDCWYSLGTWPTHRRHLREVERAVEEGASRNSGDVSLGWLKWTLSLVSWPDTSTMLVHRAGIYMVRVCLVRHCASASLCSGAGRAESAGHDCGSGGALALCMNGVAVAGLREVVTHALLYTHPATSPADSAAPWWVTRGRSRSTCAYAGNYCSAVDGAAHSPACASPGGSPSRRRFHRDIADATQRQRPCCEPAQLHTNTLTACLFLPAGATLQVRCRGLHNTKTIHEAFCELEYVV", "soluble on expression in E. coli": "not soluble"}, {"sequence": "SPAPVQDPHLIKVTVKTPKDKEDFSVTDTCTIQQLKEEISQRFKAHPDQLVLIFAGKILKDPDSLAQCGVRDGLTVHLVIKRQHRAMGNECPA", "soluble on expression in E. coli": "soluble"}, {"sequence": "MGSDKIHHHHHHMILMNNPGDKEVLRLLKQRMESVSQVEETVKEIIRRVKEEGDRALEEFLKRFEKHPVGIENLRVTEKEISEAQVEEEFVETIKIVIEDLKEFHRRQEERSFFFTTKGGSFLGEMVVPLESVGIYVPGGKVPYFSTLLMCAVPAIVAGVERIAVTTPPNENGGISPYILKTCEILGLKEIYRMGGAHAVAALTYGTETVKPVDKIVGPGGVFVTLAKKHVYGDVGIDSIAGPSEIAIVTDGSADLDLIAADFLSQAEHDENAMSVVITTSKEVFEKLPQVIERHLEALPEERRKTARISTENFGTIILTDSLKRAFEISNLIAPEHLEVLVENPFEPLGHIKNAGSVFLGKYTCESVGDYGAGPNHVLPTFRSARFSSGLRVSDFTKKIFITHLSEEDFRRKSELYSKMARWEGFEAHARAIDVRREKL", "soluble on expression in E. coli": "not soluble"}, {"sequence": "SALTAALSVCPLPSSSFFFAGFLPHKKGRKSRLEFLASIDSTIVLYESPHRIGRLMEEVKEHFPDAQVFAAREITKMHEEYVTGTPDELANHFTGQKQRGEFVVVVHPPDKH", "soluble on expression in E. coli": "not soluble"}]}]}
